Tested on: MMP-responsive peptide (P3), cleavable 'L' form, conjugated to PEG (2, 5 or 10 kD) and attached directly to 13-nm Au nanoparticle SNAs

## MMP-9
  MMP9-mediated cleavage kinetics (fluorescence on release of the N-terminal fluorophore from the Au surface): decrease in cleavage rates for 5 kD and 10 kD PEG compared to 2 kD PEG

Reference: patent US20200246484
